Test results published in US20250320302A1 (EVOTEC INTERNATIONAL, published 2025).

Tests used:
[1] = molecular target: human CD40 (human, UniProt P25942 21-277); test: cell-based or functional assay
[2] = molecular target: T1, human type I IFN receptor on HEK-Blue IFN-α/β cells (human, UniProt P17181 28-557; P48551 27-515); test: cell-based or functional assay
T1 sequence (looked up) 1: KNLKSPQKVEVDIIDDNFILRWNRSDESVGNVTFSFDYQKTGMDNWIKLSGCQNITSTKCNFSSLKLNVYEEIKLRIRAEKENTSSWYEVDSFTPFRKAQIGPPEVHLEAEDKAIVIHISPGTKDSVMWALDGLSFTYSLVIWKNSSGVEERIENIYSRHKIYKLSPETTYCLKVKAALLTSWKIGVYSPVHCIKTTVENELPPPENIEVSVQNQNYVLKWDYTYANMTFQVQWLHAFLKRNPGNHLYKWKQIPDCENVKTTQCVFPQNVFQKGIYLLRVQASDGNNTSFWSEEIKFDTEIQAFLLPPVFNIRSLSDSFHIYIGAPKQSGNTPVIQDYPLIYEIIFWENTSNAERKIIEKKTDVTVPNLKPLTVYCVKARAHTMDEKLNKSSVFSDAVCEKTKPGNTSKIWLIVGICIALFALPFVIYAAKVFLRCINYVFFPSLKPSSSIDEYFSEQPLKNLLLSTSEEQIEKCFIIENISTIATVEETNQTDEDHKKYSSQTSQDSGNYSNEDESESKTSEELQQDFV
T1 sequence (looked up) 2: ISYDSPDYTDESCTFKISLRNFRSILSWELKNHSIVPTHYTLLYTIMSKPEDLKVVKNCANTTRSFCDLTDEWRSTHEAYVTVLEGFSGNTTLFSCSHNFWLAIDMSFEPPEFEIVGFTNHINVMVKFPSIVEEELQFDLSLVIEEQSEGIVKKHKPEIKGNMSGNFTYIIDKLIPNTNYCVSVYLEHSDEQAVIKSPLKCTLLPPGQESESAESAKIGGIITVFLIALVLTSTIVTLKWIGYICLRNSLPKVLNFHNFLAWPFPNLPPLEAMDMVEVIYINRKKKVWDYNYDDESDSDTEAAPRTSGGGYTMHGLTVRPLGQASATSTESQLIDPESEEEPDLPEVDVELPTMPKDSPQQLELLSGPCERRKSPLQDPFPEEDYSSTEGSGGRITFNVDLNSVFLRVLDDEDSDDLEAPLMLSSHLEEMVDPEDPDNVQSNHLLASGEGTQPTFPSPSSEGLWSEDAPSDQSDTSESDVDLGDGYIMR

Sequence of human CD40 (P25942 21-277): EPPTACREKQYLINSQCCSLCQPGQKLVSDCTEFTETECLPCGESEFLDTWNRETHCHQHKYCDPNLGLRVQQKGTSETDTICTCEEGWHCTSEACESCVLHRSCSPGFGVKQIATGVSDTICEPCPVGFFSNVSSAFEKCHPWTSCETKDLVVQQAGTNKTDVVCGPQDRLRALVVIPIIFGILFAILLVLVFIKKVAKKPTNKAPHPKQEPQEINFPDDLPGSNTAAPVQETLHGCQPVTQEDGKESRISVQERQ

Binder	CD40 EC50 (HEK-Blue CD40L NFκB-SEAP reporter cells) [1]	IFNβ EC50 (HEK-Blue IFN-α/β SEAP reporter cells) [2]	IFNε EC50 (HEK-Blue IFN-α/β SEAP reporter cells) [2]
IFA19 (antibody, human IgG2, kappa) light: DIQMTQSPSSVSASVGDRVTITCRASQGIYSWLAWYQQKPGKAPNLLIYTASTLQSGVPSRFSGSGSGTDFTLTISSLQPEDFATYYCQQANIFPLTFGGGTKVEIKRTVAAPSVFIFPPSDEQLKSGTASVVCLLNNFYPREAKVQWKVDNALQSGNSQESVTEQDSKDSTYSLSSTLTLSKADYEKHKVYACEVTHQGLSSPVTKSFNRGECSGGTSGSTSGTGSMSYNLLGFLQRSSNFQSQKLLWQLNGRLEYCLKDRMNFDIPEEIKQLQQFQKEDAALTIYEMLQNIFAIFRQDSSSTGWNETIVENLLANVYHQINHLKTVLEEKLEKEDFTRGKLMSSLHLKRYYGRILHYLKAKEYSHCAWTIVRVEILRNFYFINRLTGYLRN heavy: not shown	0.11 µg/mL	0.0013 µg/mL	
IFA12 (antibody, human IgG2, kappa) light: DIQMTQSPSSVSASVGDRVTITCRASQGIYSWLAWYQQKPGKAPNLLIYTASTLQSGVPSRFSGSGSGTDFTLTISSLQPEDFATYYCQQANIFPLTFGGGTKVEIKRTVAAPSVFIFPPSDEQLKSGTASVVCLLNNFYPREAKVQWKVDNALQSGNSQESVTEQDSKDSTYSLSSTLTLSKADYEKHKVYACEVTHQGLSSPVTKSFNRGECPAPAMSYNLLGFLQRSSNFQCQKLLWQLNGRLEYCLKDRMNFDIPEEIKQLQQFQKEDAALTIYEMLQNIFAIFRQDSSSTGWNETIVENLLANVYHQINHLKTVLEEKLEKEDFTRGKLMSSLHLKRYYGRILHYLKAKEYSHCAWTIVRVEILRNFYFINRLTGYLRN heavy: not shown	0.105 µg/mL	0.00364 µg/mL	
IFA13 (antibody, human IgG2, kappa) light: DIQMTQSPSSVSASVGDRVTITCRASQGIYSWLAWYQQKPGKAPNLLIYTASTLQSGVPSRFSGSGSGTDFTLTISSLQPEDFATYYCQQANIFPLTFGGGTKVEIKRTVAAPSVFIFPPSDEQLKSGTASVVCLLNNFYPREAKVQWKVDNALQSGNSQESVTEQDSKDSTYSLSSTLTLSKADYEKHKVYACEVTHQGLSSPVTKSFNRGECPAPAMSYNLLGFLQRSSNFQSQKLLWQLNGRLEYCLKDRMNFDIPEEIKQLQQFQKEDAALTIYEMLQNIFAIFRQDSSSTGWNETIVENLLANVYHQINHLKTVLEEKLEKEDFTRGKLMSSLHLKRYYGRILHYLKAKEYSHCAWTIVRVEILRNFYFINRLTGYLRN heavy: not shown	0.192 µg/mL	0.0007 µg/mL	
IFA10 (antibody, human IgG2, kappa) heavy: not shown light: DIQMTQSPSSVSASVGDRVTITCRASQGIYSWLAWYQQKPGKAPNLLIYTASTLQSGVPSRFSGSGSGTDFTLTISSLQPEDFATYYCQQANIFPLTFGGGTKVEIKRTVAAPSVFIFPPSDEQLKSGTASVVCLLNNFYPREAKVQWKVDNALQSGNSQESVTEQDSKDSTYSLSSTLTLSKADYEKHKVYACEVTHQGLSSPVTKSFNRGEC	0.0265 µg/mL	0.0045 µg/mL	
IFA8 (antibody, human IgG2, kappa) heavy: not shown light: DIQMTQSPSSVSASVGDRVTITCRASQGIYSWLAWYQQKPGKAPNLLIYTASTLQSGVPSRFSGSGSGTDFTLTISSLQPEDFATYYCQQANIFPLTFGGGTKVEIKRTVAAPSVFIFPPSDEQLKSGTASVVCLLNNFYPREAKVQWKVDNALQSGNSQESVTEQDSKDSTYSLSSTLTLSKADYEKHKVYACEVTHQGLSSPVTKSFNRGEC	0.0397 µg/mL	0.0029 µg/mL	
IFA49 (antibody, human IgG2, kappa) heavy: not shown light: DIQMTQSPSSVSASVGDRVTITCRASQGIYSWLAWYQQKPGKAPNLLIYTASTLQSGVPSRFSGSGSGTDFTLTISSLQPEDFATYYCQQANIFPLTFGGGTKVEIKRTVAAPSVFIFPPSDEQLKSGTASVVCLLNNFYPREAKVQWKVDNALQSGNSQESVTEQDSKDSTYSLSSTLTLSKADYEKHKVYACEVTHQGLSSPVTKSFNRGEC	0.0658 µg/mL		0.0782 µg/mL
IFA9 (antibody, human IgG2, kappa) heavy: not shown light: DIQMTQSPSSVSASVGDRVTITCRASQGIYSWLAWYQQKPGKAPNLLIYTASTLQSGVPSRFSGSGSGTDFTLTISSLQPEDFATYYCQQANIFPLTFGGGTKVEIKRTVAAPSVFIFPPSDEQLKSGTASVVCLLNNFYPREAKVQWKVDNALQSGNSQESVTEQDSKDSTYSLSSTLTLSKADYEKHKVYACEVTHQGLSSPVTKSFNRGEC	0.0426 µg/mL	0.0007 µg/mL	
IFA11 (antibody, human IgG2, kappa) heavy: not shown light: DIQMTQSPSSVSASVGDRVTITCRASQGIYSWLAWYQQKPGKAPNLLIYTASTLQSGVPSRFSGSGSGTDFTLTISSLQPEDFATYYCQQANIFPLTFGGGTKVEIKRTVAAPSVFIFPPSDEQLKSGTASVVCLLNNFYPREAKVQWKVDNALQSGNSQESVTEQDSKDSTYSLSSTLTLSKADYEKHKVYACEVTHQGLSSPVTKSFNRGEC	0.0428 µg/mL	0.00178 µg/mL	
IFA126 (antibody, human IgG2, kappa) light: DIQMTQSPSSVSASVGDRVTITCRASQGIYSWLAWYQQKPGKAPNLLIYTASTLQSGVPSRFSGSGSGTDFTLTISSLQPEDFATYYCQQANIFPLTFGGGTKVEIKRTVAAPSVFIFPPSDEQLKSGTASVVCLLNNFYPREAKVQWKVDNALQSGNSQESVTEQDSKDSTYSLSSTLTLSKADYEKHKVYACEVTHQGLSSPVTKSFNRGECGGGGSGGGGSGGGGSMSYNLLGFLQRSSNFQSQKLLWQLNGRLEYCLKDRMNFDIPEEIKQLQQFQKEDAALTIYEMLQNIFAIFRQDSSSTGWNETIVENLLANVYHQINHLKTVLEEKLEKEDFTRGKLMSSLHLKRYYGRILHYLKAKEYSHCAWTIVRVEILRNFYFINRLTGYLRN heavy: not shown	0.364 µg/mL	0.00208 µg/mL	
IFA20 (antibody, human IgG2, kappa) light: DIQMTQSPSSVSASVGDRVTITCRASQGIYSWLAWYQQKPGKAPNLLIYTASTLQSGVPSRFSGSGSGTDFTLTISSLQPEDFATYYCQQANIFPLTFGGGTKVEIKRTVAAPSVFIFPPSDEQLKSGTASVVCLLNNFYPREAKVQWKVDNALQSGNSQESVTEQDSKDSTYSLSSTLTLSKADYEKHKVYACEVTHQGLSSPVTKSFNRGECAEAAAKEAAAKAAEAAAKEAAAKAMSYNLLGFLQRSSNFQSQKLLWQLNGRLEYCLKDRMNFDIPEEIKQLQQFQKEDAALTIYEMLQNIFAIFRQDSSSTGWNETIVENLLANVYHQINHLKTVLEEKLEKEDFTRGKLMSSLHLKRYYGRILHYLKAKEYSHCAWTIVRVEILRNFYFINRLTGYLRN heavy: not shown	0.182 µg/mL	0.00234 µg/mL	
IFA1 (antibody, human IgG2, kappa) light: DIQMTQSPSSVSASVGDRVTITCRASQGIYSWLAWYQQKPGKAPNLLIYTASTLQSGVPSRFSGSGSGTDFTLTISSLQPEDFATYYCQQANIFPLTFGGGTKVEIKRTVAAPSVFIFPPSDEQLKSGTASVVCLLNNFYPREAKVQWKVDNALQSGNSQESVTEQDSKDSTYSLSSTLTLSKADYEKHKVYACEVTHQGLSSPVTKSFNRGECAEAAAKEAAAKAMSYNLLGFLQRSSNFQCQKLLWQLNGRLEYCLKDRMNFDIPEEIKQLQQFQKEDAALTIYEMLQNIFAIFRQDSSSTGWNETIVENLLANVYHQINHLKTVLEEKLEKEDFTRGKLMSSLHLKRYYGRILHYLKAKEYSHCAWTIVRVEILRNFYFINRLTGYLRN heavy: not shown	0.0741 µg/mL	0.00164 µg/mL	
IFA2 (antibody, human IgG2, kappa) light: DIQMTQSPSSVSASVGDRVTITCRASQGIYSWLAWYQQKPGKAPNLLIYTASTLQSGVPSRFSGSGSGTDFTLTISSLQPEDFATYYCQQANIFPLTFGGGTKVEIKRTVAAPSVFIFPPSDEQLKSGTASVVCLLNNFYPREAKVQWKVDNALQSGNSQESVTEQDSKDSTYSLSSTLTLSKADYEKHKVYACEVTHQGLSSPVTKSFNRGECAEAAAKEAAAKAMSYNLLGFLQRSSNFQSQKLLWQLNGRLEYCLKDRMNFDIPEEIKQLQQFQKEDAALTIYEMLQNIFAIFRQDSSSTGWNETIVENLLANVYHQINHLKTVLEEKLEKEDFTRGKLMSSLHLKRYYGRILHYLKAKEYSHCAWTIVRVEILRNFYFINRLTGYLRN heavy: not shown	0.111 µg/mL	0.00014 µg/mL	
